Where two headings read alike, the source gives them in different places. Non-standard residues stand in square brackets, D forms with d. No end group written: not given here. *: point of attachment. Palmitoyl = CCCCCCCCCCCCCCCC(=O)*; Aib = CC(C)(N)C(=O)O
Experiments:
Test in all cases: cell-based or functional assay
[1] = molecular target: T1, glucagon receptor (human, UniProt P47871 26-477)
[2] = molecular target: T2, GLP-1 receptor (human, UniProt P43220 24-463)
[3] = molecular target: T1, glucagon receptor; remark: listed apart in the source
[4] = molecular target: T2, GLP-1 receptor; remark: listed apart in the source
[5] = molecular target: T2, GLP-1 receptor; remark: listed apart in the source
[6] = molecular target: T1, glucagon receptor; remark: listed apart in the source
[7] = molecular target: T2, GLP-1 receptor; remark: listed apart in the source
[8] = molecular target: T1, glucagon receptor; remark: listed apart in the source
[9] = molecular target: T2, GLP-1 receptor; remark: listed apart in the source
[10] = molecular target: T1, glucagon receptor; remark: listed apart in the source
[11] = molecular target: T1, glucagon receptor; remark: listed apart in the source
[12] = molecular target: T2, GLP-1 receptor; remark: listed apart in the source
Target sequence in this assay (P43220 24-463): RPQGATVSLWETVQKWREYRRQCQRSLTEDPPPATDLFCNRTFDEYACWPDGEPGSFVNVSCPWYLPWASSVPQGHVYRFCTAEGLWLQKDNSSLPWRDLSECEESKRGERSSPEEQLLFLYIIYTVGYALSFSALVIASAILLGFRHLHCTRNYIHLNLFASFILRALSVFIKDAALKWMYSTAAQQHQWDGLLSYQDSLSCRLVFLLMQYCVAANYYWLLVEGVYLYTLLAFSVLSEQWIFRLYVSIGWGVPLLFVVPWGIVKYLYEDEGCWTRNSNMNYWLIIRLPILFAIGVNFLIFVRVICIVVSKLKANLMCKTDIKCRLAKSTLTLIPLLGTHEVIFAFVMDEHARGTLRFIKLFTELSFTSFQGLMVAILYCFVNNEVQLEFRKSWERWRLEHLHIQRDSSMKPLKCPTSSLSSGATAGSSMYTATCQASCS

T1 sequence (P47871 26-477): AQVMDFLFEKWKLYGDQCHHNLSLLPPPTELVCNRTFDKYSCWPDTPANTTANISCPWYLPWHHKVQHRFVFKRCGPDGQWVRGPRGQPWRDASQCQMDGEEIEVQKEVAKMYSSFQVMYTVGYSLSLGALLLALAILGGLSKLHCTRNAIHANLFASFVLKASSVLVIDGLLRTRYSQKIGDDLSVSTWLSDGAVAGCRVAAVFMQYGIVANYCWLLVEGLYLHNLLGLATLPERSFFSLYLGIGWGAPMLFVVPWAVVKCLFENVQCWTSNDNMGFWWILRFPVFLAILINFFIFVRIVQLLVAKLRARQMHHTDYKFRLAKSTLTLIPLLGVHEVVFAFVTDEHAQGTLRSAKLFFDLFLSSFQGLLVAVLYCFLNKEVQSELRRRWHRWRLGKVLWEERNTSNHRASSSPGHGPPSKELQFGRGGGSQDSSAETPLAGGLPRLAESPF

HSQGTFTSDYSKYLDERRAKEFVQWLMNT-NH2 (not fully specified; also: further groups not given here) [Glucagon Analog 68]
% Relative Activity vs native glucagon [1]: 104%
EC50 (cAMP luciferase reporter) [1]: 0.068 nM
% Relative Activity vs native GLP-1 [2]: 44%
EC50 (cAMP luciferase reporter) [2]: 0.075 nM

HSQGTFTSDKSKYLDEQAAKEFICWLLDT (also: DPP-IV-resistant residue at position 1 or 2, not given here) [Glucagon Analog 57]
% Relative Activity vs native glucagon [3]: 1%
EC50 (cAMP luciferase reporter) [3]: 4.8 nM

B1: Peptide 14 (peptide)
peptide: KHSQETFTSDYSKYLDSRRAQDFVQWLMNT
modifications: not fully specified; amidated unless FIG. 1 shows OH; lactam, D-residues, Orn/Dab only as drawn in FIG. 1
EC50 (cAMP luciferase reporter) [4]: 33 nM

HSQGTFTSDKSKYLDEQAAKEFICWLLDTG (not fully specified) [Glucagon Analog 55]
% Relative Activity vs native glucagon [3]: 7%
EC50 (cAMP luciferase reporter) [3]: 0.55 nM
% Relative Activity vs native GLP-1 [5]: 16%
EC50 (cAMP luciferase reporter) [5]: 0.516 nM

HSQGTFTSDKSKYLDEQAVRLFIC(PEG 40 kDa)WLLDT-NH2 (also: acylated amino acid at position 10, acyl group not given here) [Glucagon Analog 85]
EC50 (cAMP luciferase reporter) [6]: 0.107 nM
percent in parentheses (not explained) [6]: 16%
EC50 (cAMP luciferase reporter) [7]: 0.013 nM
percent in parentheses (not explained) [7]: 284%

HSQGTFTSDYSKYLDEQAVRLFICWLLDGGPSSGAPPPS-NH2 (not fully specified; also: further groups not given here) [Glucagon Analog 84]
EC50 (cAMP luciferase reporter) [6]: 0.132 nM
percent in parentheses (not explained) [6]: 14.4%
EC50 (cAMP luciferase reporter) [7]: 0.006 nM
percent in parentheses (not explained) [7]: 600%

HSQGTFTSDK(Palmitoyl)SKYLDEEAVRLFIEWLMNT-NH2 [Glucagon Analog 39]
EC50 (cAMP luciferase reporter) [6]: 2.54 nM
EC50 (cAMP luciferase reporter) [7]: 0.033 nM

HSQGTFTSDYSKYLDEQAVRLFICWLLDT-NH2 (not fully specified; also: further groups not given here) [Glucagon Analog 87]
EC50 (cAMP luciferase reporter) [6]: 0.021 nM
percent in parentheses (not explained) [6]: 71%
EC50 (cAMP luciferase reporter) [7]: 0.013 nM
percent in parentheses (not explained) [7]: 284%

HSQKTFTEDYSKYLDSRRAQDFVQWLMNT (not fully specified; also: further groups not given here) [Peptide 16]
EC50 (cAMP luciferase reporter) [4]: 121 nM

HAQGTFTSDKSKYLDERAAQDFVC(PEG 40 kDa)WLLDT-NH2 (also: other non-coded residues as, not given here) [Glucagon Analog 81]
% Relative Activity vs native glucagon [8]: 51.4%
EC50 (cAMP luciferase reporter) [8]: 37000 nM
% Relative Activity vs native GLP-1 [9]: 300%
EC50 (cAMP luciferase reporter) [9]: 0.012 nM

HSQGTFTSDYSKYLDSKRAQEFVQWLMNT-NH2 [Peptide 1]
EC50 (cAMP luciferase reporter) [4]: 0.13 nM

HSQGTFTSDYSKYLDEEAVRLFICWLMNT-NH2 (also: DPP-IV-resistant residue at position 1 or 2) [Glucagon Analog 32]
EC50 (cAMP luciferase reporter) [6]: 0.22 nM
EC50 (cAMP luciferase reporter) [7]: 0.007 nM

HSQGTFTSDYSKYLDEKRAKEFVCWLLDGGPSSGAPPPS-NH2 (not fully specified; also: further groups not given here) [Glucagon Analog 61]
% Relative Activity vs native glucagon [1]: 88%
EC50 (cAMP luciferase reporter) [1]: 0.017 nM
% Relative Activity vs native GLP-1 [2]: 39%
EC50 (cAMP luciferase reporter) [2]: 0.096 nM

HSQGTFTSDYSKYLDERRAKDFVQWLMNT-NH2 (not fully specified; also: further groups not given here) [Glucagon Analog 67]
% Relative Activity vs native glucagon [1]: 93%
EC50 (cAMP luciferase reporter) [1]: 0.077 nM
% Relative Activity vs native GLP-1 [2]: 47%
EC50 (cAMP luciferase reporter) [2]: 0.071 nM

HSQGTFTSDKSKYLDEEAVRLFIEWLMNT-NH2 (also: Lys-γGlu-C16 (K(B)) at unstated position) [Glucagon Analog 37]
EC50 (cAMP luciferase reporter) [6]: 0.119 nM
EC50 (cAMP luciferase reporter) [7]: 0.011 nM

HSQGTFTSDKSKYLDEQAAKEFICWLLDT (also: DPP-IV-resistant residue at position 1 or 2, not given here) [Glucagon Analog 53]
% Relative Activity vs native glucagon [3]: 411%
EC50 (cAMP luciferase reporter) [3]: 0.009 nM
% Relative Activity vs native GLP-1 [5]: 708%
EC50 (cAMP luciferase reporter) [5]: 0.012 nM

HSQGTFTSDKSKYLDEQAAKEFIC(PEG 40 kDa)WLLDTGG-NH2 (not fully specified; also: further groups not given here) [Glucagon Analog 78]
% Relative Activity vs native glucagon [8]: 44%
EC50 (cAMP luciferase reporter) [8]: 140000 nM
% Relative Activity vs native GLP-1 [9]: 196%
EC50 (cAMP luciferase reporter) [9]: 0.026 nM

HSQGTFTSDKSKYLDEQAAKEFICWLLDTGG (not fully specified) [Glucagon Analog 56]
% Relative Activity vs native glucagon [3]: 272%
EC50 (cAMP luciferase reporter) [3]: 0.018 nM
% Relative Activity vs native GLP-1 [5]: 125%
EC50 (cAMP luciferase reporter) [5]: 0.068 nM

HSQGTFTSDYSKYLDEKRAKEFVQWLMNT-NH2 (not fully specified; also: further groups not given here) [Glucagon Analog 65]
% Relative Activity vs native glucagon [1]: 264%
EC50 (cAMP luciferase reporter) [1]: 0.053 nM
% Relative Activity vs native GLP-1 [2]: 64%
EC50 (cAMP luciferase reporter) [2]: 0.036 nM

B2: Peptide 15 (peptide)
peptide: KHSQETFTSDYSKYLDSRRAQDFVQWLMNT
modifications: not fully specified; amidated unless FIG. 1 shows OH; lactam, D-residues, Orn/Dab only as drawn in FIG. 1
EC50 (cAMP luciferase reporter) [4]: 73.4 nM

HSQGTFTSDKSKYLDEQAAKEFICWLLDTE-NH2 (not fully specified; also: further groups not given here) [Glucagon Analog 83]
% Relative Activity vs native glucagon [8]: 61%
EC50 (cAMP luciferase reporter) [8]: 28000 nM
% Relative Activity vs native GLP-1 [9]: 288%
EC50 (cAMP luciferase reporter) [9]: 0.024 nM

HSQGTFTSDYSKYLDSKRAQEFVQWLMNT-NH2 (also: non-coded residues and acylation only) [Glucagon Analog 66]
EC50 (cAMP luciferase reporter) [2]: 0.13 nM

KAHSEGTFTSDYSKYLDSRRAQDFVQWLMNT (not fully specified; also: further groups not given here) [Peptide 12]
EC50 (cAMP luciferase reporter) [10]: 85.9 nM
EC50 (cAMP luciferase reporter) [4]: 41.7 nM

KAHSEGTFTSDYSKYLDSRRAQDFVQWLMNT (not fully specified; also: further groups not given here) [Peptide 13]
EC50 (cAMP luciferase reporter) [10]: 30.7 nM
EC50 (cAMP luciferase reporter) [4]: 14.3 nM

HAQGTFTSDKSKYLDERAAQDFVCWLLDT (not fully specified (C-terminus)) [Glucagon Analog 59]
% Relative Activity vs native glucagon [11]: 490%
EC50 (cAMP luciferase reporter) [11]: 0.01 nM
% Relative Activity vs native GLP-1 [12]: 484%
EC50 (cAMP luciferase reporter) [12]: 0.019 nM

HSQGTFTSDKSKYLDEQAAKEFIC(PEG 40 kDa)WLLDT-NH2 (not fully specified; also: further groups not given here) [Glucagon Analog 79]
% Relative Activity vs native glucagon [8]: 26%
EC50 (cAMP luciferase reporter) [8]: 240000 nM
% Relative Activity vs native GLP-1 [9]: 41%
EC50 (cAMP luciferase reporter) [9]: 0.125 nM

HSQGTFTSDYSKYLDEEAVRLFICWLMNT-NH2 (also: DPP-IV-resistant residue at position 1 or 2) [Glucagon Analog 34]
EC50 (cAMP luciferase reporter) [6]: 0.404 nM
EC50 (cAMP luciferase reporter) [7]: 0.018 nM

HSQGTFTSDKSKYLDEQAAKEFICWLLDE-NH2 (not fully specified; also: further groups not given here) [Glucagon Analog 82]
% Relative Activity vs native glucagon [8]: 121%
EC50 (cAMP luciferase reporter) [8]: 14000 nM
% Relative Activity vs native GLP-1 [9]: 345%
EC50 (cAMP luciferase reporter) [9]: 0.02 nM

HSQGTFTSDYSKYLD[Aib]KAVRLFICWLLDT-NH2 [Glucagon Analog 86]
EC50 (cAMP luciferase reporter) [6]: 0.035 nM
percent in parentheses (not explained) [6]: 43%
EC50 (cAMP luciferase reporter) [7]: 0.035 nM
percent in parentheses (not explained) [7]: 106%

From patent US20120288511A1 (INDIANA UNIVERSITY RESEARCH AND TECHNOLOGY, published 2012)
